# Measured values published in patent US20180155451A1 (published 2018).
# T1: FcγRIIb extracellular domain with C-terminal His tag (human, UniProt P31994 43-217)
# T1 construct: extracellular domain; Soluble receptor expressed in FreeStyle293 cells, used as analyte in Biacore; also called FcgRIIb; CD32B; not shown: His tag at the C terminus
# T1 sequence (looked up): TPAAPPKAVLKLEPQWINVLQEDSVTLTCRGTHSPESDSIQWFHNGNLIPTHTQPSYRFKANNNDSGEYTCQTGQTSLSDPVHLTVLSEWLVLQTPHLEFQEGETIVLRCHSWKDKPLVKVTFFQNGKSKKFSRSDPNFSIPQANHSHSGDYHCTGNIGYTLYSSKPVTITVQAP
# B1: GpH7-A5/GpH7-B3 variant P238_07I/GpL16-k0 (antibody, human IgG1, kappa)
# heavy 1: not shown
# heavy 2: not shown
# light: DIVMTQSPLSLPVTPGEPASISCQASESLVHSNRNTYLHWYLQKPGQSPQLLIYKVSNRFSGVPDRFSGSGSGTDFTLKISRVEAEDVGVYYCSQNTHVPPTFGQGTKVEIERTVAAPSVFIFPPSDEQLKSGTASVVCLLNNFYPREAKVQWKVDNALQSGNSQESVTEQDSKDSTYSLSSTLTLSKADYEKHKVYACEVTHQGLSSPVTKSFNRGEC
# notes: Heterodimerized anti-glypican-3 IgG1; substitution in only one H chain; also called P238I; He Ab
# B2: GpH7-A5/GpH7-B3 variant P238_13S/GpL16-k0 (antibody, human IgG1, kappa)
# heavy 1: not shown
# heavy 2: not shown
# light: B1 light
# notes: Heterodimerized anti-glypican-3 IgG1; substitution in only one H chain; also called P238S; He Ab
# B3: GpH7-A5/GpH7-B3 variant P238_14T/GpL16-k0 (antibody, human IgG1, kappa)
# heavy 1: not shown
# heavy 2: not shown
# light: B1 light
# notes: Heterodimerized anti-glypican-3 IgG1; substitution in only one H chain; also called P238T; He Ab
# B4: GpH7-A5/GpH7-B3 variant S239_11K/GpL16-k0 (antibody, human IgG1, kappa)
# heavy 1: not shown
# heavy 2: not shown
# light: B1 light
# notes: Heterodimerized anti-glypican-3 IgG1; substitution in only one H chain; also called S239K; He Ab
# B5: GpH7-A5/GpH7-B3 variant P238_11K/GpL16-k0 (antibody, human IgG1, kappa)
# heavy 1: not shown
# heavy 2: not shown
# light: B1 light
# notes: Heterodimerized anti-glypican-3 IgG1; substitution in only one H chain; also called P238K; He Ab
# B6: GpH7-A5/GpH7-B3 variant S239_15Y/GpL16-k0 (antibody, human IgG1, kappa)
# heavy 1: not shown
# heavy 2: not shown
# light: B1 light
# notes: Heterodimerized anti-glypican-3 IgG1; substitution in only one H chain; also called S239Y; He Ab
# B7: GpH7-A5/GpH7-B3 variant S239_04F/GpL16-k0 (antibody, human IgG1, kappa)
# heavy 1: not shown
# heavy 2: not shown
# light: B1 light
# notes: Heterodimerized anti-glypican-3 IgG1; substitution in only one H chain; also called S239F; He Ab
# B8: GpH7-A5/GpH7-B3 variant S239_16H/GpL16-k0 (antibody, human IgG1, kappa)
# heavy 1: not shown
# heavy 2: not shown
# light: B1 light
# notes: Heterodimerized anti-glypican-3 IgG1; substitution in only one H chain; also called S239H; He Ab
# B9: GpH7-A5/GpH7-B3 variant S239_12R/GpL16-k0 (antibody, human IgG1, kappa)
# heavy 1: not shown
# heavy 2: not shown
# light: B1 light
# notes: Heterodimerized anti-glypican-3 IgG1; substitution in only one H chain; also called S239R; He Ab
# B10: GpH7-A5/GpH7-B3 variant P238_18N/GpL16-k0 (antibody, human IgG1, kappa)
# heavy 1: not shown
# heavy 2: not shown
# light: B1 light
# notes: Heterodimerized anti-glypican-3 IgG1; substitution in only one H chain; also called P238N; He Ab
# B11: GpH7-A5/GpH7-B3 variant P238_12R/GpL16-k0 (antibody, human IgG1, kappa)
# heavy 1: not shown
# heavy 2: not shown
# light: B1 light
# notes: Heterodimerized anti-glypican-3 IgG1; substitution in only one H chain; also called P238R; He Ab
# Biological target: T2, FcγRIa extracellular domain with C-terminal His tag (human, UniProt P12314 16-292)
# T2 construct: extracellular domain; Soluble receptor expressed in FreeStyle293 cells, used as analyte in Biacore; also called FcgRI; CD64; not shown: His tag at the C terminus
# Test: SPR (Biacore); ratio of He/Con_1a (FcγRIa) to He/Con_2b (FcγRIIb) of the same antibody
# T2 sequence (P12314 16-292): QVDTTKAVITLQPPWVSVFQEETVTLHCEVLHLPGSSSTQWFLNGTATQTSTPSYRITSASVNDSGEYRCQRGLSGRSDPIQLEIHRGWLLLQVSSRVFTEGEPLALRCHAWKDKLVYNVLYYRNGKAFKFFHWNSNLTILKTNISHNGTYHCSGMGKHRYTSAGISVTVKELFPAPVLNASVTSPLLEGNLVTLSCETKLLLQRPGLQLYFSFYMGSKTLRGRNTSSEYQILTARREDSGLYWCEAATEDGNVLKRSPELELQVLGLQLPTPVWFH
row,Ia/IIb He_1a/2b,Binder
1,1.24,B1
2,1.37,B2
3,1.8,B3
4,2.75,B4
5,4.27,B5
6,2.57,B6
7,2.13,B7
8,1.78,B8
9,2.21,B9
10,1.27,B10
11,1.5,B11

# Biological target: T1, FcγRIIb extracellular domain with …
# Test: SPR (Biacore), antibody captured via antigen peptide, FcγR as analyte; binding relative to GpH7-A5/GpH7-B3/GpL16-k0 = 100
row,He/Con_2b,Binder
1,80 % of control (GpH7-A5/GpH7-B3/GpL16-k0 = 100),B1
2,70.4 % of control (GpH7-A5/GpH7-B3/GpL16-k0 = 100),B2
3,50.7 % of control (GpH7-A5/GpH7-B3/GpL16-k0 = 100),B3
4,24.7 % of control (GpH7-A5/GpH7-B3/GpL16-k0 = 100),B4
5,18.1 % of control (GpH7-A5/GpH7-B3/GpL16-k0 = 100),B5
6,34.9 % of control (GpH7-A5/GpH7-B3/GpL16-k0 = 100),B6
7,44.1 % of control (GpH7-A5/GpH7-B3/GpL16-k0 = 100),B7
8,49.4 % of control (GpH7-A5/GpH7-B3/GpL16-k0 = 100),B8
9,39.1 % of control (GpH7-A5/GpH7-B3/GpL16-k0 = 100),B9
10,73.2 % of control (GpH7-A5/GpH7-B3/GpL16-k0 = 100),B10
11,51.4 % of control (GpH7-A5/GpH7-B3/GpL16-k0 = 100),B11

# Biological target: T2, FcγRIa extracellular domain with …
# Test: as above
row,He/Con_1a,Binder
1,99.1 % of control (GpH7-A5/GpH7-B3/GpL16-k0 = 100),B1
2,96.6 % of control (GpH7-A5/GpH7-B3/GpL16-k0 = 100),B2
3,91.1 % of control (GpH7-A5/GpH7-B3/GpL16-k0 = 100),B3
4,68 % of control (GpH7-A5/GpH7-B3/GpL16-k0 = 100),B4
5,77.4 % of control (GpH7-A5/GpH7-B3/GpL16-k0 = 100),B5
6,89.8 % of control (GpH7-A5/GpH7-B3/GpL16-k0 = 100),B6
7,93.8 % of control (GpH7-A5/GpH7-B3/GpL16-k0 = 100),B7
8,88.1 % of control (GpH7-A5/GpH7-B3/GpL16-k0 = 100),B8
9,86.5 % of control (GpH7-A5/GpH7-B3/GpL16-k0 = 100),B9
10,93.3 % of control (GpH7-A5/GpH7-B3/GpL16-k0 = 100),B10
11,77.3 % of control (GpH7-A5/GpH7-B3/GpL16-k0 = 100),B11
